Results taken from patent US20240043504A1.

Target: SARS-CoV-2 spike protein variant Y483A (Table 27), on VSV pseudoparticles (SARS-CoV-2) (UniProt P0DTC2)
Test: cell-based or functional assay

mAb10987 (antibody)
Relative neutralization (5 µg/ml, Vero cells): 99%
